Measurements from patent US20210047412A1.

B1: NAN10 (4B4) (VHH)
VHH: QVQLQASGGGLVQGGESLRLSCAASGRTVAEYTIGWYRQAPGKEREFVAGPSWHARGTSYLDSVKGRFTISRDNTKDTVYLQMNTLKPEDTAVYYCNADVNTDYSEYVEYWGQGTQVG
B2: NAN4 (5A1) (VHH)
VHH: QVQLQASGGGLVQPGGSLTLSCAASGSIDSILAMGWYRQGPGKQREFVASISWSGDITYYADSAKGRFTISRDNAKNTVYLQMNSLKPEDTAVYYCNAGPDMQISGPTDDYDYWGQGTQVG
B3: NAN7/8 (5A5) (VHH)
VHH: QVQLQASGGGLVEPGGSLRLSCAASGAIFRIAAMGWYRQAPGKERELVATITRGGSTNYADSVKGRFTISRDNAKNTAYLQMDSLKAEDTGVYYCNAGLWATTSANYWGQGTQVG
B4: NAN15 (4B2) (VHH)
VHH: QVQLQASGGGLVQPGEHLLLSCAASGFAFGIYTMGWYRQAPGKEREKVASISRTSDSWNYADSVKGRFTISRENAKNTLYLQMNSLKPEDTALYFCAKSRSAWNTDDIEYWGQGTQVG
B5: NAN13/14 (VHH)
VHH: QVQLQASGGGLAQPGGSLRLSCAASGFTFSSYAMSWARQAPGKGLEWVSGIYSDGSGSYYADSVKGRFTISRDNAKNTLYLQMNSLKPEDTALYYCAKGSWSRGIKETDYWGQGTQVG
B6: NAN20 (VHH)
VHH: QVQLVQSGGEVKKPGASVKVSCKASGYTFTNYGITWARQAPGKGLEWVGGIYSDGSEPYYADSMKGRFTISRDNVKSTLYLQMNDLKPEDTALYFCAKGRGDFLKSAWRENRRYDSWGQGTQVG
B7: NAN9 (VHH)
VHH: QVQLQASGGGLVQPGGSLRLSCATSGFTLDNLAIGWLRQAPGKEREGVSCISGSVGSTYYVDSVEGRFTISKDNAKNTVALQMDRLNPEDTAVYYCSAVGRERTHLPNWQYWGQGTQVG
B8: NAN22 (VHH)
VHH: QVQLQASGGGLVQPGGSLRLSCAASGSIFGLYAMGWYRQAPGKQRDLVAAIASGGSTNYADSVKGRFTISRDNAKNTVYLQMNSLKPEDTADYYCNVAGDVTAQNRCKHLEVWGQGTQVG
B9: NAN6 (VHH)
VHH: QVQLQASGGGLVQPGGSLTLSCAASGSIDSILAMGWYRQGPGKQRELVATITSDGGSTNYAEYVKGRFTISRDDANNTACLQMDNLKPDDTAVYYCNAKGRRLSYGYWGQGTQVG
B10: NAN27 (VHH)
VHH: QPQAFGGGLVQPGGSLRLSCVASGSTDSIYAMGWYRQAPGKQRELVATITSADSTNYADSVKGRFTISRDNAKNTVVLQMNSLKPEDTAVYYCNAGSLAGYDYWGQGTQVG

target: canine PD-1 (canine); assay: ELISA, affinity for canine PD-1 (Table 2)

Row | Kd [nM] | Binder
1 | 2.3 | B1
2 | 7 | B2
3 | 5.01 | B3
4 | 2.51 | B4

target: canine PD-1 (canine); assay: ELISA; footnote: predicted affinity, not quantitatively measured

Row | Kd [nM] | Binder
5 | > 10 | B5
6 | > 10 | B6
7 | > 10 | B7
8 | > 10 | B8
9 | > 10 | B9
10 | > 10 | B10

target: canine PD-1 (canine); assay: ELISA on plate-bound tagged canine PD-1, Kd by the Bobrovnik method

Row | Kd [nM] | Binder
11 | 2.3 | B1
12 | 7 | B2
13 | 5.01 | B3
14 | 2.51 | B4

target: canine PD-1 (canine); assay: competition ELISA, blockade of canine PD-1/PD-L1 binding; competitor canine PD-L1

Row | IC50 [nM] | Binder
15 | 5.04 | B1
16 | 8.25 | B2
17 | 6.83 | B3
18 | 5 | B4

target: canine PD-1 (canine); assay: competition ELISA, inhibition of canine PD-1 binding to canine PD-L1; competitor canine PD-L1 (Table 2)

Row | IC50 [nM] | Binder
19 | 5.04 | B1
20 | 8.25 | B2
21 | 6.83 | B3
22 | 5 | B4
